Consider 15 molecules from paper PMC5597230, “Identification and characterization of preferred DNA-binding sites for the Thermus thermophilus transcriptional regulator FadR”.

Common to all, as to details: protein: recombinant; tags: none stated (pET-11a); chain copies: 2; label: IRD700
The target of data set [1] is T1, FadR (Thermus thermophilus HB8, UniProt Q5SM42 1-205).
T1 sequence: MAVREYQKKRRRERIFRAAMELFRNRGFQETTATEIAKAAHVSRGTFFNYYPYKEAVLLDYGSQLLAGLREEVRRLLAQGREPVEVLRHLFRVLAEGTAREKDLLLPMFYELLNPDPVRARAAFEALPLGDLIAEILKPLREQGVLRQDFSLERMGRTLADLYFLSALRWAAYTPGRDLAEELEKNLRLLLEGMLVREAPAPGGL
Kind of data set: EMSA; EMSA as in previous SbtR study (buffer, salt, pH, temperature not given in the material); FadR titrations up to 600 nM, IRD700-labeled probes. Background: Mobility shift assays separate free from complexed probe on a gel.

Data set [2] deals with T1, FadR. The data set is described as follows: EMSA; Kd in figure only; all promoter probes 0.053-11 nM; EMSA as in previous SbtR study (buffer, salt, pH, temperature not given in the material); FadR titrations up to 600 nM, IRD700-labeled probes.
The target of data set [3] is T1, FadR. Kind of data set: EMSA; range stated for m1,m3,m4,m5,m7; exact value only in figure; EMSA as in previous SbtR study (buffer, salt, pH, temperature not given in the material); FadR titrations up to 600 nM, IRD700-labeled probes.
Data set [4] addresses T1, FadR. Kind of data set: EMSA; very low KD stated; value in figure only; EMSA as in previous SbtR study (buffer, salt, pH, temperature not given in the material); FadR titrations up to 600 nM, IRD700-labeled probes.

B1: ST2_FadR_R5_wt (dsDNA)
DNA 1: AGGAATTCGTGCAGAGGTGAATTTGGACTTAGTCCAATTACCATCCCTCCAGAAGCTTGG
DNA 2: CCAAGCTTCTGGAGGGATGGTAATTGGACTAAGTCCAAATTCACCTCTGCACGAATTCCT
Regarding B1, the Kd with FadR [1] was 0.17 nM.

B2: ST2_FadR_TTHA1144 (dsDNA)
DNA 1: AGGAATTCGTGCAGAGGTGAATTTAGACTCGGTCAAATTACCATCCCTCCAGAAGCTTGG
DNA 2: CCAAGCTTCTGGAGGGATGGTAATTTGACCGAGTCTAAATTCACCTCTGCACGAATTCCT
Consider B2, for which the binding result with FadR [2] is reported as “binds”.

B3: ST2_FadR_R5_m5 (dsDNA)
DNA 1: AGGAATTCGTGCAGAGGTGAATTTGGGCTTAGTCCAATTACCATCCCTCCAGAAGCTTGG
DNA 2: CCAAGCTTCTGGAGGGATGGTAATTGGACTAAGCCCAAATTCACCTCTGCACGAATTCCT
For B3, the Kd in the data set with FadR [3] was approximately 4.69 nM.

B4: ST2_FadR_TTHA0604 (dsDNA)
DNA 1: AGGAATTCGTGCAGAGGTGAATTTATACTGGGTCTAATTACCATCCCTCCAGAAGCTTGG
DNA 2: CCAAGCTTCTGGAGGGATGGTAATTAGACCCAGTATAAATTCACCTCTGCACGAATTCCT
For B4, in the data set with FadR [2], the binding result was “binds”.

B5: ST2_FadR_R5_m1 (dsDNA)
DNA 1: AGGAATTCGTGCAGAGGTGAATGTGGACTTAGTCCAATTACCATCCCTCCAGAAGCTTGG
DNA 2: CCAAGCTTCTGGAGGGATGGTAATTGGACTAAGTCCACATTCACCTCTGCACGAATTCCT
Consider B5, for which the Kd in the data set with FadR [3] was approximately 4.69 nM.

B6: ST2_FadR_TTHA0103 (dsDNA)
DNA 1: AGGAATTCGTGCAGAGGTGAATTTGGACCTGGTAAAATTACCATCCCTCCAGAAGCTTGG
DNA 2: CCAAGCTTCTGGAGGGATGGTAATTTTACCAGGTCCAAATTCACCTCTGCACGAATTCCT
On to B6, for which the binding result in the data set with FadR [2] is on record as “binds”.

B7: ST2_FadR_R5_m7 (dsDNA)
DNA 1: AGGAATTCGTGCAGAGGTGAATTTGGACATAGTCCAATTACCATCCCTCCAGAAGCTTGG
DNA 2: CCAAGCTTCTGGAGGGATGGTAATTGGACTATGTCCAAATTCACCTCTGCACGAATTCCT
B7: the Kd in the data set with FadR [3] was approximately 4.69 nM.

B8: ST2_FadR_TTHA0402 (dsDNA)
DNA 1: AGGAATTCGTGCAGAGGTGAATTTGAACCCAGTATAATTACCATCCCTCCAGAAGCTTGG
DNA 2: CCAAGCTTCTGGAGGGATGGTAATTATACTGGGTTCAAATTCACCTCTGCACGAATTCCT
In the case of B8, the binding result in the data set with FadR [2] is “binds”.

B9: ST2_FadR_TTHA1118 (dsDNA)
DNA 1: AGGAATTCGTGCAGAGGTGAATTTATACTCGGTAAAATTACCATCCCTCCAGAAGCTTGG
DNA 2: CCAAGCTTCTGGAGGGATGGTAATTTTACCGAGTATAAATTCACCTCTGCACGAATTCCT
For B9, in the data set with FadR [2], the binding result is on record as “binds”.

B10: ST2_FadR_R5_m4 (dsDNA)
DNA 1: AGGAATTCGTGCAGAGGTGAATTTGCACTTAGTCCAATTACCATCCCTCCAGAAGCTTGG
DNA 2: CCAAGCTTCTGGAGGGATGGTAATTGGACTAAGTGCAAATTCACCTCTGCACGAATTCCT
For the molecule B10, the Kd with FadR [3] was approximately 4.69 nM.

B11: ST2_FadR_R5_m3 (dsDNA)
DNA 1: AGGAATTCGTGCAGAGGTGAATTTCGACTTAGTCCAATTACCATCCCTCCAGAAGCTTGG
DNA 2: CCAAGCTTCTGGAGGGATGGTAATTGGACTAAGTCGAAATTCACCTCTGCACGAATTCCT
For B11, in the data set with FadR [3], the Kd is approximately 4.69 nM.

B12: ST2_FadR_TTHA0390 (dsDNA)
DNA 1: AGGAATTCGTGCAGAGGTGAATTTGAACCGGGTATAATTACCATCCCTCCAGAAGCTTGG
DNA 2: CCAAGCTTCTGGAGGGATGGTAATTATACCCGGTTCAAATTCACCTCTGCACGAATTCCT
For the molecule B12, the binding result with FadR [2] is on record as “binds”.

B13: ST2_FadR_TTHB017 (dsDNA)
DNA 1: AGGAATTCGTGCAGAGGTGAATTTATACTGGGTCCAATTACCATCCCTCCAGAAGCTTGG
DNA 2: CCAAGCTTCTGGAGGGATGGTAATTGGACCCAGTATAAATTCACCTCTGCACGAATTCCT
For the molecule B13, the binding result in the data set with FadR [4] is “binds”.

B14: ST2_FadR_TTHA0846 (dsDNA)
DNA 1: AGGAATTCGTGCAGAGGTGAATTTATACTCAGTACATTTACCATCCCTCCAGAAGCTTGG
DNA 2: CCAAGCTTCTGGAGGGATGGTAAATGTACTGAGTATAAATTCACCTCTGCACGAATTCCT
In the case of B14, the binding result in the data set with FadR [2] is reported as “binds”.

B15: ST2_FadR_TTHA1463 (dsDNA)
DNA 1: AGGAATTCGTGCAGAGGTGAATTTGAACCCGGTACAATTACCATCCCTCCAGAAGCTTGG
DNA 2: CCAAGCTTCTGGAGGGATGGTAATTGTACCGGGTTCAAATTCACCTCTGCACGAATTCCT
With B15, the binding result with FadR [4] is given as “binds”.

As a reminder, the Kd is the constant that tells how readily two partners part at equilibrium.
